Data as given in patent US20180362628A1 (KYMAB, published 2018).
Read-outs that look alike come from different tables or passages of the source. No end group written: not given here. *: point of attachment. Biotin = O=C1N[C@H]2[C@H](CS[C@H]2CCCCC(=O)*)N1

Tests used:
[1] = target: T1, Peptide #3 (Biotin-SGSGHKKLKQPGDGNPDPNANPN) (N-terminal biotin); assay: BLI, biotin-peptide on streptavidin sensor, IgG1 in solution, 25 C;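 on Response (nm): antibody solution at 30 µg/mL during association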
T1 construct: also called Peptide #3 44288
T1 peptide: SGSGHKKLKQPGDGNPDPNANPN

[2] = target: T2, Peptide #4 (Biotin-SGSGNPDPNANP); assay: as above
T2 construct: also called Peptide #4 44285
T2 peptide: Biotin-SGSGNPDPNANP

[3] = target: T3, Peptide #5 (Biotin-SGSGDGNPDPNANPNV), original sequence of the alanine scan; assay: as above
T3 construct: also called Peptide #5 44289
T3 peptide: Biotin-SGSGDGNPDPNANPNV

[4] = target: T4, Peptide #6 (Biotin-SGSGAGNPDPNANPNV); assay: as above
T4 construct: alanine scan variant; also called Peptide #6 44290
T4 peptide: Biotin-SGSGAGNPDPNANPNV

[5] = target: T5, Peptide #7 (Biotin-SGSGDANPDPNANPNV); assay: as above
T5 construct: alanine scan variant; also called Peptide #7 44291
T5 peptide: Biotin-SGSGDANPDPNANPNV

[6] = target: T6, Peptide #8 (Biotin-SGSGDGAPDPNANPNV); assay: as above
T6 construct: alanine scan variant; also called Peptide #8 44292
T6 peptide: Biotin-SGSGDGAPDPNANPNV

[7] = target: T7, Peptide #9 (Biotin-SGSGDGNADPNANPNV); assay: as above
T7 construct: alanine scan variant; also called Peptide #9 44293
T7 peptide: Biotin-SGSGDGNADPNANPNV

[8] = target: T8, Peptide #10 (Biotin-SGSGDGNPAPNANPNV); assay: as above
T8 construct: alanine scan variant; also called Peptide #10 44294
T8 peptide: Biotin-SGSGDGNPAPNANPNV

[9] = target: T9, Peptide #11 (Biotin-SGSGDGNPDANANPNV); assay: as above
T9 construct: alanine scan variant; also called Peptide #11 44295
T9 peptide: Biotin-SGSGDGNPDANANPNV

[10] = target: T10, Peptide #12 (Biotin-SGSGDGNPDPAANPNV); assay: as above
T10 construct: alanine scan variant; also called Peptide #12 44296
T10 peptide: Biotin-SGSGDGNPDPAANPNV

[11] = target: T11, Peptide #13 (Biotin-SGSGDGNPDPNKNPNV); assay: as above
T11 construct: scan variant, alanine replaced by lysine; also called Peptide #13 44297
T11 peptide: Biotin-SGSGDGNPDPNKNPNV

[12] = target: T12, Peptide #14 (Biotin-SGSGDGNPDPNAAPNV); assay: as above
T12 construct: alanine scan variant; also called Peptide #14 44298
T12 peptide: Biotin-SGSGDGNPDPNAAPNV

[13] = target: T13, Peptide #15 (Biotin-SGSGDGNPDPNANANV); assay: as above
T13 construct: alanine scan variant; also called Peptide #15 44299
T13 peptide: Biotin-SGSGDGNPDPNANANV

[14] = target: T14, Peptide #16 (Biotin-SGSGDGNPDPNANPAV); assay: as above
T14 construct: alanine scan variant; also called Peptide #16 44300
T14 peptide: Biotin-SGSGDGNPDPNANPAV

[15] = target: T15, Peptide #17 (Biotin-SGSGDGNPDPNANPNA); assay: as above
T15 construct: alanine scan variant; also called Peptide #17 44301
T15 peptide: Biotin-SGSGDGNPDPNANPNA

[16] = target: T16, Peptide #1 (Biotin-SGSGKPKHKKLKQPGDGNPDPNANP) (N-terminal biotin); assay: as above
T16 construct: also called Peptide #1 44286
T16 peptide: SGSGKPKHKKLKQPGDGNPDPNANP

[17] = target: T17, biotinylated rCSP (biotin/rCSP, Example 3) (Plasmodium falciparum strain 3D7, UniProt P02893 19-389, biotinylated (sites not given)); assay: BLI (Octet), biotin-rCSP on streptavidin sensor, antibody in solution
T17 construct: also called biotin/Pf CSP
T17 chain: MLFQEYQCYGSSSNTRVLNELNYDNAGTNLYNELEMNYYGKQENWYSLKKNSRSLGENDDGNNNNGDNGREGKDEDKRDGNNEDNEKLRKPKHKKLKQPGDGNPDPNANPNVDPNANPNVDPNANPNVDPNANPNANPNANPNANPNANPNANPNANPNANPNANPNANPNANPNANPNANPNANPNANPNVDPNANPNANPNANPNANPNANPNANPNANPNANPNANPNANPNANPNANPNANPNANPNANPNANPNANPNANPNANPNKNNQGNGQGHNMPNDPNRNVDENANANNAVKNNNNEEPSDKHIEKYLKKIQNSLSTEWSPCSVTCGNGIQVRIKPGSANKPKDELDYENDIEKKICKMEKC

[18] = target: T17, biotinylated rCSP (biotin/rCSP, Example …); assay: as above
[19] = target: T18, Recombinant CSP (Wellcome Trust Sanger Institute, FIG. 22), CSP ectodomain with BirA biotinylation tag, … (Plasmodium falciparum strain 3D7, UniProt Q7K740 19-376, biotinylated at the BirA substrate peptide); assay: SPR, IgG1 captured, CSP as analyte, 40 C; apparent affinity (avidity)
T18 construct: extracellular domain; Expressed in HEK293, 45 kDa; order of the tags is that of the legend, not confirmed; also called biotinylated recombinant CSP

B1: Antibody 668, human IgG1 (antibody, V domains shown)
VH: QVQLVQSGAEVKKPGASVKVSCKASGFTFTDYAMHWVRQAPGQRLEWMGWINAGNGYTKYSQKFQDRLTITRDTFASTVYMELSSLRSEDTTVYYCARDGFCPSNTCSGYYGMDVWGQGTTVTVSS
VL: QSALTQPASVSGSPGQSITISCTGTSSDVGSYNYVSWYQQHPGKAPKLMIYDVNTRPSGVSIRFSASKSGNTASLTVSGLQAEDEAVYYCSSYAGSSTWVFGGGTKLTVL
notes: human IgG1 with human lambda light chain constant region; HEK293 product; also called AB-000668; Ab668
[1]
  Response (nm): 6.34 nm
[2]
  Response (nm): 4.69 nm
[3]
  Response (nm): 4.71 nm
[4]
  Response (nm): 4.9 nm
[5]
  Response (nm): 4.88 nm
[6]
  Response (nm): 4.86 nm
[7]
  Response (nm): 4.72 nm
[8]
  Response (nm): 5.82 nm
[9]
  Response (nm): 6.01 nm
[10]
  Response (nm): 4.74 nm
[11]
  binding result: no binding (tested: LOD 0.170 nm)
[12]
  Response (nm): 0.597 nm
[13]
  Response (nm): 5.69 nm
[14]
  Response (nm): 4.72 nm
[15]
  Response (nm): 4.86 nm
[16]
  Response (nm): 6.47 nm
[17]
  Kd: 0.57 nM
[18]
  Kd: 0.57 nM
  koff: 7.1e-05 s⁻¹
  kon: 125000 M⁻¹ s⁻¹
[19]
  Kd: 0.05 nM
  koff: 2.47e-05 s⁻¹
  kon: 540000 M⁻¹ s⁻¹
